Patent US12186374B2 (Sanofi-Aventis Deutschland GmbH, priority 2014, dated 2025)

Columns and labels:
[1] = test system: patients with Type 2 diabetes mellitus (T2DM); assay: Treatment-emergent adverse events incl. serious, fatal, leading to discontinuation (Example 2)
patients with T2DM = assay: ALT increase reported on AE form (Example 3); conditions: on-treatment period
[2] = PT ≥3% in any treatment group, Safety population
[3] = SOC, PT ≥ 3% in any treatment group, Safety population

## Gly(A21)-Arg(B31)-Arg(B32)-human insulin [Insulin Glargine]
[1]; Example 2
  Diarrhea, % of patients: 4.3%
  Nausea, % of patients: 3.6%
  Nausea, number of patients: 17 patients
  Overall incidence of gastrointestinal adverse events: 12.6%
  Patients reporting treatment-emergent adverse events, %: 48.6%
  Patients reporting treatment-emergent adverse events, number: 227 patients
  Patients who withdrew from treatment due to TEAEs: 1.9%
  Patients with at least 1 TEAE leading to death: 3 patients
  Serious TEAEs, % of patients: 4.1%
  Serious TEAEs, number of patients: 19 patients
  Upper respiratory tract infection, % of patients: 4.9%
  Withdrawals caused by gastrointestinal adverse events: 0.2%
[1]; [2]
  TEAE: Back pain: 10 (2.1%) n (%)
  TEAE: Diarrhoea: 20 (4.3%) n (%)
  TEAE: Dizziness: 7 (1.5%) n (%)
  TEAE: Headache: 15 (3.2%) n (%)
  TEAE: Influenza: 11 (2.4%) n (%)
  TEAE: Nasopharyngitis: 25 (5.4%) n (%)
  TEAE: Nausea: 17 (3.6%) n (%)
  TEAE: Upper respiratory tract infection: 23 (4.9%) n (%)
  TEAE: Vomiting: 7 (1.5%) n (%)
[1]; PT, Safety population
  Serious TEAE: Acquired phimosis: 0 n (%)
  Serious TEAE: Acute kidney injury: 0 n (%)
  Serious TEAE: Acute myocardial infarction: 1 (0.2%) n (%)
  Serious TEAE: Acute pulmonary oedema: 1 (0.2%) n (%)
  Serious TEAE: Anaphylactic reaction: 0 n (%)
  Serious TEAE: Angioedema: 0 n (%)
  Serious TEAE: Bladder prolapse: 1 (0.2%) n (%)
  Serious TEAE: Bronchitis: 1 (0.2%) n (%)
  Serious TEAE: Calculus urinary: 1 (0.2%) n (%)
  Serious TEAE: Cardiac failure acute: 1 (0.2%) n (%)
  Serious TEAE: Cardiac failure chronic: 1 (0.2%) n (%)
  Serious TEAE: Cardiac failure congestive: 1 (0.2%) n (%)
  Serious TEAE: Cervical dysplasia: 0 n (%)
  Serious TEAE: Cholecystitis chronic: 0 n (%)
  Serious TEAE: Chronic obstructive pulmonary disease: 1 (0.2%) n (%)
  Serious TEAE: Comminuted fracture: 1 (0.2%) n (%)
  Serious TEAE: Coronary artery disease: 1 (0.2%) n (%)
  Serious TEAE: Costochondritis: 1 (0.2%) n (%)
  Serious TEAE: Death: 0 n (%)
  Serious TEAE: Diabetes mellitus inadequate control: 0 n (%)
  Serious TEAE: Dyspnoea: 1 (0.2%) n (%)
  Serious TEAE: Electrocardiogram ST-T segment abnormal: 0 n (%)
  Serious TEAE: Erysipelas: 0 n (%)
  Serious TEAE: Febrile infection: 0 n (%)
  Serious TEAE: Hydronephrosis: 1 (0.2%) n (%)
  Serious TEAE: Hypertension: 1 (0.2%) n (%)
  Serious TEAE: Lacunar infarction: 1 (0.2%) n (%)
  Serious TEAE: Lipase increased: 1 (0.2%) n (%)
  Serious TEAE: Lung cancer metastatic: 0 n (%)
  Serious TEAE: Lung neoplasm malignant: 0 n (%)
  Serious TEAE: Meningitis staphylococcal: 0 n (%)
  Serious TEAE: Metabolic acidosis: 0 n (%)
  Serious TEAE: Metastases to liver: 0 n (%)
  Serious TEAE: Metrorrhagia: 0 n (%)
  Serious TEAE: Myocardial infarction: 1 (0.2%) n (%)
  Serious TEAE: Non-cardiac chest pain: 1 (0.2%) n (%)
  Serious TEAE: Oesophagitis: 0 n (%)
  Serious TEAE: Palpitations: 0 n (%)
  Serious TEAE: Pancreatic carcinoma: 1 (0.2%) n (%)
  Serious TEAE: Pancytopenia: 1 (0.2%) n (%)
  Serious TEAE: Pneumonia: 1 (0.2%) n (%)
  Serious TEAE: Prostate cancer recurrent: 1 (0.2%) n (%)
  Serious TEAE: Pyelonephritis acute: 1 (0.2%) n (%)
  Serious TEAE: Radiculopathy: 0 n (%)
  Serious TEAE: Renal colic: 0 n (%)
  Serious TEAE: Respiratory failure: 0 n (%)
  Serious TEAE: Spinal osteoarthritis: 0 n (%)
  Serious TEAE: Squamous cell carcinoma of skin: 0 n (%)
  Serious TEAE: Squamous cell carcinoma of the oral cavity: 1 (0.2%) n (%)
  Serious TEAE: Tendon rupture: 0 n (%)
  Serious TEAE: Thyroid adenoma: 1 (0.2%) n (%)
  Serious TEAE: Toxicity to various agents: 0 n (%)
  Serious TEAE: Transient ischaemic attack: 0 n (%)
  Serious TEAE: Urinary tract infection: 0 n (%)
  Serious TEAE: Urosepsis: 1 (0.2%) n (%)
  Serious TEAE: Urticaria: 0 n (%)
  TEAE leading to death: Acute myocardial infarction: 1 (0.2%) n (%)
  TEAE leading to death: Acute pulmonary oedema: 1 (0.2%) n (%)
  TEAE leading to death: Cardiac failure acute: 1 (0.2%) n (%)
  TEAE leading to death: Cardiac failure congestive: 0 n (%)
  TEAE leading to death: Death: 0 n (%)
  TEAE leading to death: Lung cancer metastatic: 0 n (%)
  TEAE leading to death: Squamous cell carcinoma of the oral cavity: 1 (0.2%) n (%)
  TEAE leading to permanent treatment discontinuation: Abdominal distension: 0 n (%)
  TEAE leading to permanent treatment discontinuation: Abdominal pain: 0 n (%)
  TEAE leading to permanent treatment discontinuation: Acute myocardial infarction: 1 (0.2%) n (%)
  TEAE leading to permanent treatment discontinuation: Acute pulmonary oedema: 1 (0.2%) n (%)
  TEAE leading to permanent treatment discontinuation: Alanine aminotransferase increased: 0 n (%)
  TEAE leading to permanent treatment discontinuation: Anaphylactic reaction: 0 n (%)
  TEAE leading to permanent treatment discontinuation: Atrial fibrillation: 0 n (%)
  TEAE leading to permanent treatment discontinuation: Back pain: 0 n (%)
  TEAE leading to permanent treatment discontinuation: Bacteraemia: 0 n (%)
  TEAE leading to permanent treatment discontinuation: Blood creatinine increased: 0 n (%)
  TEAE leading to permanent treatment discontinuation: Bronchitis: 1 (0.2%) n (%)
  TEAE leading to permanent treatment discontinuation: Cardiac failure acute: 1 (0.2%) n (%)
  TEAE leading to permanent treatment discontinuation: Cardiac failure congestive: 0 n (%)
  TEAE leading to permanent treatment discontinuation: Colitis: 0 n (%)
  TEAE leading to permanent treatment discontinuation: Comminuted fracture: 1 (0.2%) n (%)
  TEAE leading to permanent treatment discontinuation: Cough: 1 (0.2%) n (%)
  TEAE leading to permanent treatment discontinuation: Death: 0 n (%)
  TEAE leading to permanent treatment discontinuation: Decreased appetite: 0 n (%)
  TEAE leading to permanent treatment discontinuation: Depression: 1 (0.2%) n (%)
  TEAE leading to permanent treatment discontinuation: Diabetic mononeuropathy: 0 n (%)
  TEAE leading to permanent treatment discontinuation: Diarrhoea: 0 n (%)
  TEAE leading to permanent treatment discontinuation: Drug hypersensitivity: 1 (0.2%) n (%)
  TEAE leading to permanent treatment discontinuation: Dyspepsia: 1 (0.2%) n (%)
  TEAE leading to permanent treatment discontinuation: Extradural abscess: 0 n (%)
  TEAE leading to permanent treatment discontinuation: Fatigue: 1 (0.2%) n (%)
  TEAE leading to permanent treatment discontinuation: Gastritis erosive: 0 n (%)
  TEAE leading to permanent treatment discontinuation: Headache: 1 (0.2%) n (%)
  TEAE leading to permanent treatment discontinuation: Injection site erythema: 0 n (%)
  TEAE leading to permanent treatment discontinuation: Insomnia: 0 n (%)
  TEAE leading to permanent treatment discontinuation: Lipase increased: 1 (0.2%) n (%)
  TEAE leading to permanent treatment discontinuation: Lung cancer metastatic: 0 n (%)
  TEAE leading to permanent treatment discontinuation: Lung neoplasm malignant: 0 n (%)
  TEAE leading to permanent treatment discontinuation: Meningitis staphylococcal: 0 n (%)
  TEAE leading to permanent treatment discontinuation: Myocardial infarction: 1 (0.2%) n (%)
  TEAE leading to permanent treatment discontinuation: Nausea: 0 n (%)
  TEAE leading to permanent treatment discontinuation: Pancreatic carcinoma: 1 (0.2%) n (%)
  TEAE leading to permanent treatment discontinuation: Rash: 1 (0.2%) n (%)
  TEAE leading to permanent treatment discontinuation: Skin burning sensation: 0 n (%)
  TEAE leading to permanent treatment discontinuation: Urinary tract infection: 0 n (%)
  TEAE leading to permanent treatment discontinuation: Urticaria: 0 n (%)
  TEAE leading to permanent treatment discontinuation: Vomiting: 0 n (%)
[1]; [3]
  TEAE: Gastrointestinal disorders: 59 (12.6%) n (%)
  TEAE: Infections and infestations: 126 (27.0%) n (%)
  TEAE: Musculoskeletal and connective tissue disorders: 41 (8.8%) n (%)
  TEAE: Nervous system disorders: 30 (6.4%) n (%)
[1]; SOC, Safety population
  Serious TEAE: Blood and lymphatic system disorders: 1 (0.2%) n (%)
  Serious TEAE: Cardiac disorders: 6 (1.3%) n (%)
  Serious TEAE: Gastrointestinal disorders: 0 n (%)
  Serious TEAE: General disorders and administration site conditions: 1 (0.2%) n (%)
  Serious TEAE: Hepatobiliary disorders: 0 n (%)
  Serious TEAE: Immune system disorders: 0 n (%)
  Serious TEAE: Infections and infestations: 2 (0.4%) n (%)
  Serious TEAE: Injury, poisoning and procedural complications: 1 (0.2%) n (%)
  Serious TEAE: Investigations: 1 (0.2%) n (%)
  Serious TEAE: Metabolism and nutrition disorders: 0 n (%)
  Serious TEAE: Musculoskeletal and connective tissue disorders: 1 (0.2%) n (%)
  Serious TEAE: Neoplasms benign, malignant and unspecified (incl cysts and polyps): 4 (0.9%) n (%)
  Serious TEAE: Nervous system disorders: 1 (0.2%) n (%)
  Serious TEAE: Renal and urinary disorders: 2 (0.4%) n (%)
  Serious TEAE: Reproductive system and breast disorders: 0 n (%)
  Serious TEAE: Respiratory, thoracic and mediastinal disorders: 3 (0.6%) n (%)
  Serious TEAE: Skin and subcutaneous tissue disorders: 0 n (%)
  Serious TEAE: Vascular disorders: 1 (0.2%) n (%)
  TEAE leading to death: Cardiac disorders: 2 (0.4%) n (%)
  TEAE leading to death: General disorders and administration site conditions: 0 n (%)
  TEAE leading to death: Neoplasms benign, malignant and unspecified (incl cysts and polyps): 1 (0.2%) n (%)
  TEAE leading to death: Respiratory, thoracic and mediastinal disorders: 1 (0.2%) n (%)
  TEAE leading to permanent treatment discontinuation: Cardiac disorders: 3 (0.6%) n (%)
  TEAE leading to permanent treatment discontinuation: Gastrointestinal disorders: 1 (0.2%) n (%)
  TEAE leading to permanent treatment discontinuation: General disorders and administration site conditions: 1 (0.2%) n (%)
  TEAE leading to permanent treatment discontinuation: Immune system disorders: 1 (0.2%) n (%)
  TEAE leading to permanent treatment discontinuation: Infections and infestations: 1 (0.2%) n (%)
  TEAE leading to permanent treatment discontinuation: Injury, poisoning and procedural complications: 1 (0.2%) n (%)
  TEAE leading to permanent treatment discontinuation: Investigations: 1 (0.2%) n (%)
  TEAE leading to permanent treatment discontinuation: Metabolism and nutrition disorders: 0 n (%)
  TEAE leading to permanent treatment discontinuation: Musculoskeletal and connective tissue disorders: 0 n (%)
  TEAE leading to permanent treatment discontinuation: Neoplasms benign, malignant and unspecified (incl cysts and polyps): 1 (0.2%) n (%)
  TEAE leading to permanent treatment discontinuation: Nervous system disorders: 1 (0.2%) n (%)
  TEAE leading to permanent treatment discontinuation: Psychiatric disorders: 1 (0.2%) n (%)
  TEAE leading to permanent treatment discontinuation: Respiratory, thoracic and mediastinal disorders: 2 (0.4%) n (%)
  TEAE leading to permanent treatment discontinuation: Skin and subcutaneous tissue disorders: 1 (0.2%) n (%)
[1]; Safety population
  Patients with any TEAE: 227 (48.6%) n (%)
  Patients with any TEAE leading to death: 3 (0.6%) n (%)
  Patients with any TEAE leading to permanent treatment discontinuation: 9 (1.9%) n (%)
  Patients with any serious TEAE: 19 (4.1%) n (%)
Patients with T2DM; Example 3
  Patients with AE of ALT increase: 2 patients
Patients with T2DM; PT, Safety population
  % of patients with events reported on the AE form for ALT increase: Alanine aminotransferase increased: 0.5%
  Number of patients with events reported on the AE form for ALT increase: Alanine aminotransferase increased: 2
  Number of patients with events reported on the AE form for ALT increase: Hepatic enzyme increased: 0
Patients with T2DM; Safety population
  % of patients with events reported on the AE form for ALT increase: Any: 0.5%
  Number of patients with events reported on the AE form for ALT increase: Any: 2
